Assays:
[1] = Liposome permeabilization by WT and mutant BAK proteins (autoactivation, or direct activation by BID BH3); assay type: biochemical; conditions: absence of BID BH3
Description: Human BAK-∆TM-His6 (BAK)[26] spontaneously permeabilizes liposomes above a certain dose (>100 nM, Fig. 1a). In these dye-release assays[43]–[46], BAK is recruited via His-tag to liposomes containing 2.5 µM of the lipid 1,2-dioleoyl-sn-glycero-3-[(N-(5-amino-1-carboxypentyl)iminodiacetic acid)succinyl] (nickel salt), DGS-NTA(Ni).
To probe autoactivation with full-length BAK, we mutated hydrophobic residues at positions (0)−(6) of the BH3 to alanine or arginine, and D83, which forms the conserved salt bridge (s) with R127, to alanine (Fig. 2a). The BH3 residues participate in autoactivation from the ligand side [hydrophobic positions (0)–(5) and D83(s)] and also from the receptor groove side [hydrophobic positions (3)–(5)] (Fig. 2a). Thus, substitutions at positions (3)–(5) should affect receptor and ligand activities and are predicted to impact BAK activation more severely than mutations of positions (0)–(2), which affect only ligand activity. […] In contrast, almost all (2)–(5) and (s) missense mutants were considerably impaired in autoactivation (Fig. 2b and Supplementary Fig. 3a). […] Despite impairment in autoactivation, all missense mutants were directly activated by BID BH3 peptide, although they induced lower level of permeabilization compared to WT BAK (Fig. 2b and Supplementary Fig. 3a).
We performed liposome permeabilization assays as previously described[43]–[46]. […] (nickel salt) [DGS NTA(Ni), 2.5 μM final concentration in each assay] (Avanti Polar Lipids). We prepared 12.5 mM fluorophore; 8-aminonaphthalene-1, 3, 6-trisulfonic acid, disodium salt (ANTS) and 45 mM quencher; p-xylene-bis-pyridiniumbromide (DPX) in LUV buffer (10 mM HEPES pH 6.8, 200 mM KCl and 5 mM MgCl2). We mixed the lipid film in ANTS/DPX solution by vortexing and sonication (~15 min) followed by extrusion through polycarbonate membrane of 2 μm pore size (Avanti Polar lipids) to generate homogenous large unilamellar vesicles (LUVs). We separated LUVs from free ANTS/DPX by S500 size exclusion chromatography and stored them at 4 °C in the dark. We prepared peptide and protein dilutions in 96-well black flat bottom plates (Costar) kept on ice. ANTS release from permeabilized liposomes causes an increase in fluorescence, which we monitored at 37 °C for 90 min using a CLARIOSTAR microplate reader (BMG Labtech) set at excitation and emission wavelengths of 360 and 530 nm, respectively. We normalized the data relative to maximum and minimum fluorescence induced by 3% CHAPS and buffer controls, respectively. We quantified liposome permabilization by integrating area under curve (AUC) of normalized traces based on the Simpson’s equation, and analyzed that data in Excel and GraphPad Prism. AUC measurements reflect the kinetic and extent of liposome permeabilization and provide quantitative means for comparison between different experimental conditions (e.g., BAK mutants with gross or partial variation in activity). Variability in permeabilization of different liposomes is common and our analyses compare among conditions investigated with the same liposomes. Although the absolute permeabilization values may differ, the trends for the same conditions are always very similar between different liposomes.

[2] = system: BCL2allKO HCT116 cells reconstituted with Dox-inducible mC-BAK; assay: Dox-induced cell death by IncuCyte imaging of SYTOX Green uptake (autoactivation); assay type: cell-based, human; conditions: mC-BAK BCL2allKO HCT116 + Dox + qVD, average, N = 3
From the text: For mammalian cell culture experiments, we cloned the full length human BAK cDNA into pCR 2.1 TOPO vector, mutated BAK as needed, and PCR amplified the BAK gene for cloning into the BamHI and NotI sites of pRETROX mCherry vector for retroviral transduction. Amplification and mutagenesis primers are included in Supplementary Table 4. To test direct BAK activation and BAK autoactivation in cells, we produced cells stably expressing mCherry-human BAK (mC-BAK) ± human BID (BID) on a genetic background devoid of the entire BCL-2 family repertoire (all 17 BCL-2 genes), BCL2allKO HCT116, as described by the Xu Luo laboratory. We expressed WT and mutant mC-BAK using the doxycycline (Dox)-based inducible Tet-On 3G retroviral system from the pRetroX-TRE3G-Puro^R in BCL2allKO HCT116 cells expressing the Tet3G from pRetroX-Tet3G-Blast^R. We selected cells with puromycin (2.5 µg/mL) and blasticidin (2 µg/mL) starting at 2 days after retroviral transduction. To enrich for populations of cells that express mC-BAK, we treated cells with low Dox dose (25 ng/mL) and fluorescence-activated cell sorted (FACS) the mCherry positive cells. We performed the enrichment twice before cell death analysis. One caveat of our cellular system is tagging BAK with N-terminal mCherry, which may affect folding efficiency, degradation, and BAK interactome.
(§1) We seeded cells in 24-well (100,000 cells/well), 96-well (15,000 cells/well), or 384-well (10,000 cells/well) plates coated with 10 µg/mL fibronectin. After ≥24 h of attachment and recovery, we induced cell death with Dox (up to 1000 ng/mL) and monitored SYTOX Green (25 nM) uptake by Incucyte imaging. This dye marks cells with compromised plasma membrane integrity. mC-BAK expressed before 24 h, which coincided with detectable cell death. We monitored Incucyte imaging for up to 48 h, followed by endpoint FACS analysis to measure the extent of cell death based on SYTOX Green positive cells on FACSCalibur systems (BD Biosciences). As expected, cells with low mCherry fluorescence were refractory to cell death.

[3] = system: BCL2allKO HCT116 cells reconstituted with mC-BAK; assay: Endpoint FACS analysis of SYTOX Green positive cells; assay type: cell-based, human; conditions: average, N = 3
Description: as §1

Row | Molecule | autoactivation in liposome permeabilization assays [1] | further results
1 | M71A (0): BAK missense mutant (protein, UniProt Q16611 2-211, looked up, variant M71A) Bcl-2 homologous …: ASGQGPGPPRQECGEPALPSASEEQVAQDTEEVFRSYVFYRHQQEQEAEGVAAPADPEMVTLPLQPSSTAGQVGRQLAIIGDDINRRYDSEFQTMLQHLQPTAENAYEYFTKIATSLFESGINWGRVVALLGFGYRLALHVYQHGLTGFLGQVTRFVVDFMLHHCIARWIAQRGGWVAALNLGNGPILNVLVVLGVVLLGQFVVRRFFKS | behave similar to WT BAK | 
2 | E46A: BAK mutant in helix α1 electrostatic network (protein, UniProt Q16611 2-211, looked up, variant E46A) Bcl-2 homologous …: ASGQGPGPPRQECGEPALPSASEEQVAQDTEEVFRSYVFYRHQQAQEAEGVAAPADPEMVTLPLQPSSTMGQVGRQLAIIGDDINRRYDSEFQTMLQHLQPTAENAYEYFTKIATSLFESGINWGRVVALLGFGYRLALHVYQHGLTGFLGQVTRFVVDFMLHHCIARWIAQRGGWVAALNLGNGPILNVLVVLGVVLLGQFVVRRFFKS | hyperactive compared to WT | 
3 | I85A (4): BAK missense mutant (protein, UniProt Q16611 2-211, looked up, variant I85A) Bcl-2 homologous …: ASGQGPGPPRQECGEPALPSASEEQVAQDTEEVFRSYVFYRHQQEQEAEGVAAPADPEMVTLPLQPSSTMGQVGRQLAIIGDDANRRYDSEFQTMLQHLQPTAENAYEYFTKIATSLFESGINWGRVVALLGFGYRLALHVYQHGLTGFLGQVTRFVVDFMLHHCIARWIAQRGGWVAALNLGNGPILNVLVVLGVVLLGQFVVRRFFKS | activity comparable to WT | 
4 | I81A (3): BAK missense mutant (protein, UniProt Q16611 2-211, looked up, variant I81A) Bcl-2 homologous …: ASGQGPGPPRQECGEPALPSASEEQVAQDTEEVFRSYVFYRHQQEQEAEGVAAPADPEMVTLPLQPSSTMGQVGRQLAIAGDDINRRYDSEFQTMLQHLQPTAENAYEYFTKIATSLFESGINWGRVVALLGFGYRLALHVYQHGLTGFLGQVTRFVVDFMLHHCIARWIAQRGGWVAALNLGNGPILNVLVVLGVVLLGQFVVRRFFKS |  | AUC (48 hr) of SYTOX Green counts/confluence ([2]; Dox 100 ng/mL): 55640.5; AUC (48 hr) of SYTOX Green counts/confluence ([2]; Dox 1000 ng/mL): 85389.8; flow cytometry SYTOX Green counts/confluence (48 hr) ([3]; Dox 100 ng/mL): 37.7333; flow cytometry SYTOX Green counts/confluence (48 hr) ([3]; Dox 1000 ng/mL): 54.2
5 | R137A: BAK mutant in helix α1 electrostatic network (protein, UniProt Q16611 2-211, looked up, variant R137A) Bcl-2 homologous …: ASGQGPGPPRQECGEPALPSASEEQVAQDTEEVFRSYVFYRHQQEQEAEGVAAPADPEMVTLPLQPSSTMGQVGRQLAIIGDDINRRYDSEFQTMLQHLQPTAENAYEYFTKIATSLFESGINWGRVVALLGFGYALALHVYQHGLTGFLGQVTRFVVDFMLHHCIARWIAQRGGWVAALNLGNGPILNVLVVLGVVLLGQFVVRRFFKS | hyperactive compared to WT | 
6 | R42A: BAK mutant in helix α1 electrostatic network (protein, UniProt Q16611 2-211, looked up, variant R42A) Bcl-2 homologous …: ASGQGPGPPRQECGEPALPSASEEQVAQDTEEVFRSYVFYAHQQEQEAEGVAAPADPEMVTLPLQPSSTMGQVGRQLAIIGDDINRRYDSEFQTMLQHLQPTAENAYEYFTKIATSLFESGINWGRVVALLGFGYRLALHVYQHGLTGFLGQVTRFVVDFMLHHCIARWIAQRGGWVAALNLGNGPILNVLVVLGVVLLGQFVVRRFFKS | hyperactive compared to WT | 

— publication PMC8752837, “Structural basis of BAK activation in mitochondrial apoptosis initiation” (Nature Communications, 2022)
